Values belong to the binder of their own block, whether it stands above or below them.
Target: T1, Wild Type Ub (human, UniProt P0CG48 1-76)
T1 construct: native (tag-free) WT ubiquitin was the analyte in BLI; also called wt Ub; WT ubiquitin
Test: ELISA on immobilized HECT domain
Experimental: Proteins in study were immobilized on 384-well MaxiSorp plates (Thermo Scientific 12665347) by adding 30 μL of 1 μM proteins for overnight incubation at 4° C. Phage and protein ELISA against immobilized proteins was performed as described (Ernst et al., 2013). Binding of phage was detected using anti-M13-HRP antibody (GE Healthcare 27942101) and binding of FLAG-tagged UbVs was detected using anti-FLAG-HRP antibody (Sigma-Aldrich A8592). […] EC₅₀ values were calculated using the GraphPad Prism software with the built-in equation formula (non-linear regression curve).

- binding result: no binding
B1: HECW2 HECT domain (enzyme)
chain: not shown
notes: domain: HECT domain; His- and Avi-tagged for selection and ELISA

- binding result: no binding
B2: KIAA0317 HECT domain (enzyme, human, UniProt O15033 436-823, looked up)
chain: SETFQDKVNFFQRELRQVHMKRPHSKVTLKVSRHALLESSLKATRNFSISDWSKNFEVVFQDEEALDWGGPRREWFELICKALFDTTNQLFTRFSDNNQALVHPNPNRPAHLRLKMYEFAGRLVGKCLYESSLGGAYKQLVRARFTRSFLAQIIGLRMHYKYFETDDPEFYKSKVCFILNNDMSEMELVFAEEKYNKSGQLDKVVELMTGGAQTPVTNANKIFYLNLLAQYRLASQVKEEVEHFLKGLNELVPENLLAIFDENELELLMCGTGDISVSDFKAHAVVVGGSWHFREKVMRWFWTVVSSLTQEELARLLQFTTGSSQLPPGGFAALCPSFQIIAAPTHSTLPTAHTCFNQLCLPTYDSYEEVHRMLQLAISEGCEGFGML
notes: as for B1

- binding result: no binding
B3: HUWE1 HECT domain (enzyme, human, UniProt Q7Z6Z7 3993-4374, looked up)
chain: DFDVKRKYFRQELERLDEGLRKEDMAVHVRRDHVFEDSYRELHRKSPEEMKNRLYIVFEGEEGQDAGGLLREWYMIISREMFNPMYALFRTSPGDRVTYTINPSSHCNPNHLSYFKFVGRIVAKAVYDNRLLECYFTRSFYKHILGKSVRYTDMESEDYHFYQGLVYLLENDVSTLGYDLTFSTEVQEFGVCEVRDLKPNGANILVTEENKKEYVHLVCQMRMTGAIRKQLAAFLEGFYEIIPKRLISIFTEQELELLISGLPTIDIDDLKSNTEYHKYQSNSIQIQWFWRALRSFDQADRAKFLQFVTGTSKVPLQGFAALEGMNGIQKFQIHRDDRSTDRLPSAHTCFNQLDLPAYESFEKLRHMLLLAIQECSEGFGLA
notes: as for B1

- binding result: no binding
B4: EDD1 HECT domain (enzyme, human, UniProt O95071 2462-2799, looked up)
chain: LDLGLVDSSEKVQQENRKRHGSSRSVVDMDLDDTDDGDDNAPLFYQPGKRGFYTPRPGKNTEARLNCFRNIGRILGLCLLQNELCPITLNRHVIKVLLGRKVNWHDFAFFDPVMYESLRQLILASQSSDADAVFSAMDLAFAIDLCKEEGGGQVELIPNGVNIPVTPQNVYEYVRKYAEHRMLVVAEQPLHAMRKGLLDVLPKNSLEDLTAEDFRLLVNGCGEVNVQMLISFTSFNDESGENAEKLLQFKRWFWSIVEKMSMTERQDLVYFWTSSPSLPASEEGFQPMPSITIRPPDDQHLPTANTCISRLYVPLYSSKQILKQKLLLAIKTKNFGFV
notes: as for B1

- binding result: no binding
B5: SMURF1 HECT domain (enzyme, human, UniProt Q9HCE7 374-757, looked up)
chain: YERDLVQKLKVLRHELSLQQPQAGHCRIEVSREEIFEESYRQIMKMRPKDLKKRLMVKFRGEEGLDYGGVAREWLYLLCHEMLNPYYGLFQYSTDNIYMLQINPDSSINPDHLSYFHFVGRIMGLAVFHGHYINGGFTVPFYKQLLGKPIQLSDLESVDPELHKSLVWILENDITPVLDHTFCVEHNAFGRILQHELKPNGRNVPVTEENKKEYVRLYVNWRFMRGIEAQFLALQKGFNELIPQHLLKPFDQKELELIIGGLDKIDLNDWKSNTRLKHCVADSNIVRWFWQAVETFDEERRARLLQFVTGSTRVPLQGFKALQGSTGAAGPRLFTIHLIDANTDNLPKAHTCFNRIDIPPYESYEKLYEKLLTAVEETCGFAVE
notes: domain: HECT domain; His- and Avi-tagged for selection and ELISA; also called S1

- binding result: no binding
B6: HERC1 HECT domain (enzyme, human, UniProt Q15751 4460-4861, looked up)
chain: IGKTMVQGKNYGPQITVKRISTRGRKCKPIFVQIARQVVKLNASDLRLPSRAWKVKLVGEGADDAGGVFDDTITEMCQELETGIVDLLIPSPNATAEVGYNRDRFLFNPSACLDEHLMQFKFLGILMGVAIRTKKPLDLHLAPLVWKQLCCVPLTLEDLEEVDLLYVQTLNSILHIEDSGITEESFHEMIPLDSFVGQSADGKMVPIIPGGNSIPLTFSNRKEYVERAIEYRLHEMDRQVAAVREGMSWIVPVPLLSLLTAKQLEQMVCGMPEISVEVLKKVVRYREVDEQHQLVQWFWHTLEEFSNEERVLFMRFVSGRSRLPANTADISQRFQIMKVDRPYDSLPTSQTCFFQLRLPPYSSQLVMAERLRYAINNCRSIDMDNYMLSRNVDNAEGSDTDY
notes: domain: HECT domain; His- and Avi-tagged for selection and ELISA; also called H1

- binding result: no binding
B7: HACE1 HECT domain (enzyme, human, UniProt Q8IYU2 529-909, looked up)
chain: EWFYEHLHSGQPDSDMVHRPVNENDILLVHRDSIFRSSCEVVSKANCAKLKQGIAVRFHGEEGMGQGVVREWFDILSNEIVNPDYALFTQSADGTTFQPNSNSYVNPDHLNYFRFAGQILGLALNHRQLVNIYFTRSFYKHILGIPVNYQDVASIDPEYAKNLQWILDNDISDLGLELTFSVETDVFGAMEEVPLKPGGGSILVTQNNKAEYVQLVTELRMTRAIQPQINAFLQGFHMFIPPSLIQLFDEYELELLLSGMPEIDVSDWIKNTEYTSGYEREDPVIQWFWEVVEDITQEERVLLLQFVTGSSRVPHGGFANIMGGSGLQNFTIAAVPYTPNLLPTSSTCINMLKLPEYPSKEILKDRLLVALHCGSYGYTMA
notes: as for B1

- binding result: no binding
B8: HERC2 HECT domain (enzyme, human, UniProt O95714 4412-4834, looked up)
chain: RQHGPVVELNRIQVKRSRSKGGLAGPDGTKSVFGQMCAKMSSFGPDSLLLPHRVWKVKFVGESVDDCGGGYSESIAEICEELQNGLTPLLIVTPNGRDESGANRDCYLLSPAARAPVHSSMFRFLGVLLGIAIRTGSPLSLNLAEPVWKQLAGMSLTIADLSEVDKDFIPGLMYIRDNEATSEEFEAMSLPFTVPSASGQDIQLSSKHTHITLDNRAEYVRLAINYRLHEFDEQVAAVREGMARVVPVPLLSLFTGYELETMVCGSPDIPLHLLKSVATYKGIEPSASLIQWFWEVMESFSNTERSLFLRFVWGRTRLPRTIADFRGRDFVIQVLDKYNPPDHFLPESYTCFFLLKLPRYSCKQVLEEKLKYAIHFCKSIDTDDYARIALTGEPAADDSSDDSDNEDVDSFASDSTQDYLTGH
notes: domain: HECT domain; His- and Avi-tagged for selection and ELISA; also called H2

- binding result: no binding
B9: HERC6 HECT domain (enzyme, human, UniProt Q8IVU3 650-1022, looked up)
chain: KAYMLMHETILQKKDEFPPSPRFILRVRRSRLVKDALRQLSQAEATDFCKVLVVEFINEICPESGGVSSEFFHCMFEEMTKPEYGMFMYPEMGSCMWFPAKPKPEKKRYFLFGMLCGLSLFNLNVANLPFPLALYKKLLDQKPSLEDLKELSPRLGKSLQEVLDDAADDIGDALCIRFSIHWDQNDVDLIPNGISIPVDQTNKRDYVSKYIDYIFNVSVKAVYEEFQRGFYRVCEKEILRHFYPEELMTAIIGNTDYDWKQFEQNSKYEQGYQKSHPTIQLFWKAFHKLTLDEKKKFLFFLTGRDRLHARGIQKMEIVFRCPETFSERDHPTSITCHNILSLPKYSTMERMEEALQVAINNNRGFVSPMLTQS
notes: domain: HECT domain; His- and Avi-tagged for selection and ELISA; also called H6

- binding result: no binding
B10: HERC4 HECT domain (enzyme, human, UniProt Q5GLZ8 685-1057, looked up)
chain: AIDQAHRQNVSSLFLPVIESVNPCLILVVRRENIVGDAMEVLRKTKNIDYKKPLKVIFVGEDAVDAGGVRKEFFLLIMRELLDPKYGMFRYYEDSRLIWFSDKTFEDSDLFHLIGVICGLAIYNCTIVDLHFPLALYKKLLKKKPSLDDLKELMPDVGRSMQQLLDYPEDDIEETFCLNFTITVENFGATEVKELVLNGADTAVNKQNRQEFVDAYVDYIFNKSVASLFDAFHAGFHKVCGGKVLLLFQPNELQAMVIGNTNYDWKELEKNTEYKGEYWAEHPTIKIFWEVFHELPLEKKKQFLLFLTGSDRIPILGMKSLKLVIQSTGGGEEYLPVSHTCFNLLDLPKYTEKETLRSKLIQAIDHNEGFSLI
notes: domain: HECT domain; His- and Avi-tagged for selection and ELISA; also called H4

- binding result: no binding
B11: HECW1 HECT domain (enzyme)
chain: not shown
notes: as for B1

- binding result: no binding
B12: UBE3C HECT domain (enzyme, human, UniProt Q15386 693-1083, looked up)
chain: VPFEERVKIFQRLIYADKQEVQGDGPFLDGINVTIRRNYIYEDAYDKLSPENEPDLKKRIRVHLLNAHGLDEAGIDGGGIFREFLNELLKSGFNPNQGFFKTTNEGLLYPNPAAQMLVGDSFARHYYFLGRMLGKALYENMLVELPFAGFFLSKLLGTSADVDIHHLASLDPEVYKNLLFLKSYEDDVEELGLNFTVVNNDLGEAQVVELKFGGKDIPVTSANRIAYIHLVADYRLNRQIRQHCLAFRQGLANVVSLEWLRMFDQQEIQVLISGAQVPISLEDLKSFTNYSGGYSADHPVIKVFWRVVEGFTDEEKRKLLKFVTSCSRPPLLGFKELYPAFCIHNGGSDLERLPTASTCMNLLKLPEFYDETLLRSKLLYAIECAAGFELS
notes: as for B1

- binding result: no binding
B13: HECTD1 HECT domain (enzyme, human, UniProt Q9ULT8 2151-2610, looked up)
chain: IHADRKSVLEVEFLGEEGTGLGPTLEFYALVAAEFQRTDLGAWLCDDNFPDDESRHVDLGGGLKPPGYYVQRSCGLFTAPFPQDSDELERITKLFHFLGIFLAKCIQDNRLVDLPISKPFFKLMCMGDIKSNMSKLIYESRGDRDLHCTESQSEASTEEGHDSLSVGSFEEDSKSEFILDPPKPKPPAWFNGILTWEDFELVNPHRARFLKEIKDLAIKRRQILSNKGLSEDEKNTKLQELVLKNPSGSGPPLSIEDLGLNFQFCPSSRIYGFTAVDLKPSGEDEMITMDNAEEYVDLMFDFCMHTGIQKQMEAFRDGFNKVFPMEKLSSFSHEEVQMILCGNQSPSWAAEDIINYTEPKLGYTRDSPGFLRFVRVLCGMSSDERKAFLQFTTGCSTLPPGGLANLHPRLTVVRKVDATDASYPSVNTCVHYLKLPEYSSEEIMRERLLAATMEKGFHLN
notes: as for B1
